Consider one substance from patent publication US20200405829.

For series [1], the system named is T1, Str2 circular zymogen of RNase 1.
T1 sequence: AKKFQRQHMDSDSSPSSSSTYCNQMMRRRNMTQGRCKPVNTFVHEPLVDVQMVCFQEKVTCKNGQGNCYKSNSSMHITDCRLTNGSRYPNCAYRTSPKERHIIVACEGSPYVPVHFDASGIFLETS

The subject of another series is T2, wild-type RNase 1.
T2 sequence: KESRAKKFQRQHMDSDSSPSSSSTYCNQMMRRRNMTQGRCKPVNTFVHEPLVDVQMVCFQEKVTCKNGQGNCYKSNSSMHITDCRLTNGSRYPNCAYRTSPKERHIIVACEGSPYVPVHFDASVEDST

The test system of series [2] is T3, Str4 circular zymogen of RNase 1.
T3 sequence: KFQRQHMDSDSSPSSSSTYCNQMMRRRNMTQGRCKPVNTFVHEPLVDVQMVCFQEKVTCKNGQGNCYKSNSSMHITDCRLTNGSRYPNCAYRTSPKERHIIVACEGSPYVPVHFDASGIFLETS

In series [3] the test system is T4, Str3 circular zymogen of RNase 1.
T4 sequence: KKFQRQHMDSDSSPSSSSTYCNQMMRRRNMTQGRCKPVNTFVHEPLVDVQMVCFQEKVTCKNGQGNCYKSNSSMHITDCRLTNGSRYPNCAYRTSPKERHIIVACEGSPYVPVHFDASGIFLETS

For HIV-1 protease, the kcat/KM (HIV-1 protease) in series [1] came out at 3900 M⁻¹ s⁻¹; in series [2], 2500 M⁻¹ s⁻¹; in series [3] it was 1300 M⁻¹ s⁻¹. Further, the “proteolytic cleavage after 3 hours of treatment at 37° C.” value with wild-type RNase 1 was “no detectable cleavage of wild-type RNase 1 was observed”.
